Here are results for five molecules from patent publication US11180770B2, “HPPD variants and methods of use” (BASF Agricultural Solutions Seed US LLC, priority 2017, dated 2021).

The subject of the series is HPPD polypeptides. Nature of the series: coupled HPPD activity assay: turnover and residual turnover in crude extracts. Type of series: biochemical, Pseudomonas fluorescens. The note with it: for Residual turnover [%]: 100 μM Cmpd. 1, signal change with inhibitor divided by signal change without inhibitor; for Turnover: absence of Cmpd. 1, kinetic changes in absorbance (OD) at 320 nm, 30 min; for Turnover / Residual turnover: high substrate concentration; for Residual turnover: presence of 100 μM Cmpd. 1, changes in absorbance (OD) at 320 nm.

B1: 23 (protein)
chain: MADLYENPMGLMGFEFIEFASPTPGTLEPIFEIMGFTKVATHRSKNVHLYRQGEINLILNNEPNSIASYFAAEHGPSVCGMAFRVKDSQKAYNRALELGAQPIHIDTGPMELNLPAIKGIGGAPLYLIDRFGEGSSIYDIDFVYLEGVERNPVGAGLKVIDHLTHNVYRGRMVYWANFYEKLFNFREARYFDIKGEYTGLTSKAMSAPDGMIRIPLNEESSKGAGQIEEFLMQFNGEGIQHVAFLTDDLVKTWDALKKIGMRFMTAPPDTYYEMLEGRLPDHGEPVDQLQARGILLDGSSVEGDKRLLLQIFSETLMGPVFFEFIQRKGDDGFGPDSFKVLFEQVERDQVRRGVLTAD
modifications: mutant HPPD polypeptide
As for B1, the “Residual turnover [%]” value came out at 39%, the Turnover is listed as 0.193 and the Residual turnover is listed as 0.076.

B2: 27 (protein)
chain: MADLYENPMGLMGFEFIEFASPTPGTLEPIFEIMGFTKVATHRSKNVHLYRQGEINLILNNEPNSIASYFAAEHGPSVCGMAFRVKDSQKAYNRALELGAQPIHIDTGPMELNLPAIKGIGGAPLYLIDRFGEGSSIYDIDFVYLEGVERNPVGAGLKVIDHLTHNVYRGRMVYWANFYEKLFNFREARYFDIKGEYTGLTSKAMSAPDGMIRIPLNEESSKGAGQIEEFLMQFNGEGIQHVAFLTDDLVKTWDALKKIGMRFMTAPADNYYEMLEGRLPDHGEPVDQLQARGILLDGSSVEGDKRLLLQIFSETLMGPVFFEFIQRKGDDGFGPHSFKVLFESIERDQVRRGVLTAD
modifications: mutant HPPD polypeptide
With B2, the “Residual turnover [%]” value is 38%, the Turnover was determined as 0.266 and the Residual turnover is reported as 0.101.

B3: 24 (protein)
chain: MADLYENPMGLMGFEFIEFASPTPGTLEPIFEIMGFTKVATHRSKNVHLYRQGEINLILNNEPNSIASYFAAEHGPSVCGMAFRVKDSQKAYNRALELGAQPIHIDTGPMELNLPAIKGIGGAPLYLIDRFGEGSSIYDIDFVYLEGVERNPVGAGLKVIDHLTHNVYRGRMVYWANFYEKLFNFREARYFDIKGEYTGLTSKAMSAPDGMIRIPLNEESSKGAGQIEEFLMQFNGEGIQHVAFLTDDLVKTWDALKKIGMRFMTAPADTYYEMLEGRLPDHGEPVDQLQARGILLDGSSVEGDKRLLLQIFSETLMGPVFFEFIQRKGDDGFGPHSFKVLFESIERDQVRRGVLTAD
modifications: mutant HPPD polypeptide
Consider B3, for which the “Residual turnover [%]” value was 39%, the Turnover stood at 0.271 and the Residual turnover was determined as 0.105.

B4: 25 (protein)
chain: MADLYENPMGLMGFEFIEFASPTPGTLEPIFEIMGFTKVATHRSKNVHLYRQGEINLILNNEPNSIASYFAAEHGPSVCGMAFRVKDSQKAYNRALELGAQPIHIDTGPMELNLPAIKGIGGAPLYLIDRFGEGSSIYDIDFVYLEGVERNPVGAGLKVIDHLTHNVYRGRMVYWANFYEKLFNFREARYFDIKGEYTGLTSKAMSAPDGMIRIPLNEESSKGAGQIEEFLMQFNGEGIQHVAFLTDDLVKTWDALKKIGMRFMTAPGDTYYEMLEGRLPDHGEPVDQLQARGILLDGSSVEGDKRLLLQIFSETLMGPVFFEFIQRKGDDGFGPHSFKVLFESIERDQVRRGVLTAD
modifications: mutant HPPD polypeptide
Turning to B4, the “Residual turnover [%]” value stood at 39%, the Turnover is 0.215 and the Residual turnover is listed as 0.083.

B5: 26 (protein)
chain: MADLYENPMGLMGFEFIEFASPTPGTLEPIFEIMGFTKVATHRSKNVHLYRQGEINLILNNEPNSIASYFAAEHGPSVCGMAFRVKDSQKAYNRALELGAQPIHIDTGPMELNLPAIKGIGGAPLYLIDRFGEGSSIYDIDFVYLEGVERNPVGAGLKVIDHLTHNVYRGRMVYWANFYEKLFNFREARYFDIKGEYTGLTSKAMSAPDGMIRIPLNEESSKGAGQIEEFLMQFNGEGIQHVAFLTDDLVKTWDALKKIGMRFMTAPPDTYYEMLEGRLPDHGEPVDQLQARGILLDGSSVEGDKRLLLQIFSETLMGPVFFEFIQRKGDDGFGPHSFKVLFESIERDQVRRGVLTAD
modifications: mutant HPPD polypeptide
Take B5: the “Residual turnover [%]” value is 28%, the Turnover amounted to 0.279 and the Residual turnover is reported as 0.077.
